Experimental data from patent US20230130737A1.
pKd: −log10 of the molar value.

Assays:
[1] = molecular target: trifunctional high FHR4-valence heteromultimer multi-FHR4.C4bpα.His/multi-2D3 VHH anti-Her2.C4bpα.FLAG/mono-eGFP.C4bpβ (human) (UniProt Q92496); test: SPR (Biacore); affinity with factor B against C3b alone
[2] = molecular target: trifunctional high FHR4-valence heteromultimer multi-FHR4.C4bpα.His/multi-2D3 VHH anti-Her2.C4bpα.FLAG/mono-eGFP.C4bpβ (human) (UniProt Q92496); test: SPR (Biacore); bound RU with factor B against C3b alone
[3] = molecular target: trifunctional high FHR4-valence heteromultimer multi-FHR4.C4bpα.His/multi-2D3 VHH anti-Her2.C4bpα.FLAG/mono-eGFP.C4bpβ (human) (UniProt Q92496); test: SPR (Biacore); FH multimer immobilised via Ni2+/NTA, C3b dose series with about 20 µg/ml Factor B as analyte
[4] = molecular target: trifunctional high FHR4-valence heteromultimer multi-FHR4.C4bpα.His/multi-2D3 VHH anti-Her2.C4bpα.FLAG/mono-eGFP.C4bpβ (human) (UniProt Q92496); test: SPR (Biacore); FH multimer immobilised via Ni2+/NTA, C3b dose series as analyte

trifunctional high FHR4-valence heteromultimer multi-FHR4.C4bpα.His/multi-2D3 VHH anti-Her2.C4bpα.FLAG/mono-eGFP.C4bpβ (human), sequence (Q92496 other isoform, or with tags, fused parts or gaps, chain 1 of 3): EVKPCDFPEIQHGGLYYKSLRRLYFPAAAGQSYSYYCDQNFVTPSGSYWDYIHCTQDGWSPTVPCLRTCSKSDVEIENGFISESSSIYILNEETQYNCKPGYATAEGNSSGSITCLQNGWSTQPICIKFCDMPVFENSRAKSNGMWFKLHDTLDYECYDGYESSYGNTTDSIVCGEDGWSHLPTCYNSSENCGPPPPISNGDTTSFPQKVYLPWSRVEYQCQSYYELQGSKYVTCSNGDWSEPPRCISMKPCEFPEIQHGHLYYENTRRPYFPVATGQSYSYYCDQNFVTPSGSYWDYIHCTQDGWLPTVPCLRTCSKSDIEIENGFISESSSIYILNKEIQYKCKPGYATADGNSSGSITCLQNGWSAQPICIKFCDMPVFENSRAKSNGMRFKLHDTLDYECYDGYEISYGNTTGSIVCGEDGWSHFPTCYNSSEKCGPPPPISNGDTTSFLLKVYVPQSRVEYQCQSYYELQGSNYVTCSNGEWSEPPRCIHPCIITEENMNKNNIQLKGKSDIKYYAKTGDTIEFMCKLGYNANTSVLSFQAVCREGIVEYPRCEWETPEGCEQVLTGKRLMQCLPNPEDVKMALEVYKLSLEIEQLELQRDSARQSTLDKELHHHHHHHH
trifunctional high FHR4-valence heteromultimer multi-FHR4.C4bpα.His/multi-2D3 VHH anti-Her2.C4bpα.FLAG/mono-eGFP.C4bpβ (human), sequence (P04003 540-597, chain 2 of 3, further chain): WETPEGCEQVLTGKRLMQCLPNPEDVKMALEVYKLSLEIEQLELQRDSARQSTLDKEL
trifunctional high FHR4-valence heteromultimer multi-FHR4.C4bpα.His/multi-2D3 VHH anti-Her2.C4bpα.FLAG/mono-eGFP.C4bpβ (human), sequence (P20851 137-252, chain 3 of 3, further chain): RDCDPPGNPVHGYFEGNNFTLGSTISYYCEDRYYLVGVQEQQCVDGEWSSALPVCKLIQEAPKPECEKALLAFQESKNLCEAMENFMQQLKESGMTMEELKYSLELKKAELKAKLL

C3b in the presence of Factor B (about 20 µg/ml) (from UniProt P01024 23-1663; P00751 26-764)
increase of binding affinity against C3b alone [1]: 2 logs
enhancement factor of bound C3b against C3b alone [2]: 5 fold
pKd [3]: 8.06

C3b (from UniProt P01024 749-1663)
pKd [4]: 6.02
